Target: STAT3-NTD-YFP
Assay: pair correlation of molecular brightness (pCOMB); pair correlation of brightness fluctuations along a 64-pixel confocal line scan from cytoplasm to nucleus of live HeLa cells; amplitude calibrated against free GFP, YFP or mCherry; cells stimulated with 10 nM oncostatin M for 15 min

STAT3-NTD-YFP (domain or fragment), sequence (P40763 2-770): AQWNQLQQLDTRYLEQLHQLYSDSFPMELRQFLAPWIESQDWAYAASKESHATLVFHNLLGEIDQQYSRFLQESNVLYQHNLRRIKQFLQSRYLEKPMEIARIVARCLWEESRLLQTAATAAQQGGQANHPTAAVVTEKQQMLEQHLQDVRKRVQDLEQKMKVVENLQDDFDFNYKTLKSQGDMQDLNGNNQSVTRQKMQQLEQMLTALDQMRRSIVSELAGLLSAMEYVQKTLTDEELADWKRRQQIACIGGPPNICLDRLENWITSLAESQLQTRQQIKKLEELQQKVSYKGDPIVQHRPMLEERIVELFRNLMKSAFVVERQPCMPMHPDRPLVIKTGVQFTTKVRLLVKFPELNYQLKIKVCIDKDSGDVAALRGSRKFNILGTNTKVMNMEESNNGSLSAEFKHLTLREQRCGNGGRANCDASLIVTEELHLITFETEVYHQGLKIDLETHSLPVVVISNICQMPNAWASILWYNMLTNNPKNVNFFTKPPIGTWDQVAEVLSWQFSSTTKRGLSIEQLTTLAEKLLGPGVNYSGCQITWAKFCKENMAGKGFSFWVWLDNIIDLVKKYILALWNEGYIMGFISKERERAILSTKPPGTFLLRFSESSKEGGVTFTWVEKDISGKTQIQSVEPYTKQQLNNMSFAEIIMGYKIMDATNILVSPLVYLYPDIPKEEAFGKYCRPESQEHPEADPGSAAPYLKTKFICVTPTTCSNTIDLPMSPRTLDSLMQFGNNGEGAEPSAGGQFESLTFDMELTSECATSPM

stoichiometry N: 2
Substance: STAT3-NTD-YFP (domain or fragment)
